From article PMC5477782 (Journal of internal medicine, 2017)

B1: recombinant disulfide HMGB1 (natural protein, UniProt P09429 1-215, looked up)
chain: MGKGDPKKPRGKMSSYAFFVQTCREEHKKKHPDASVNFSEFSKKCSERWKTMSAKEKGKFEDMAKADKARYEREMKTYIPPKGETKKKFKDPNAPKRPPSAFFLFCSEYRPKIKGEHPGLSIGDVAKKLGEMWNNTAADDKQPYEKKAAKLKEKYEKDIAAYRAKGKPDAAKKGVVKAEKSKKKKEEEEDEEDEEDEEEEEDEEDEDEEEDDDDE
modifications: disulfide redox form (cysteines not named)
B2: HMGB1-haptoglobin β complexes (1:1 molar ratio) (complex)
chain 1: B1 chain
chain 2: ILGGHLDAKGSFPWQAKMVSHHNLTTGATLINEQWLLTTAKNLFLNHSENATAKDIAPTLTLYVGKKQLVEIEKVVLHPNYSQVDIGLIKLKQKVSVNERVMPICLPSKDYAEVGRVGYVSGWGRNANFKFTDHLKYVMLPVADQDQCIRHYEGSTVPEKKTPKSPVGVQPILNEHTFCAGMSKYQEDTCYGDAGSAFAVHDLEEDTWYATGILSFDKSCAVAEYGVYVKVTSIQDWVQKTIAEN

What was measured:
Assay in all cases: SPR
[1] = biological target: T1, recombinant human haptoglobin β subunit (human, UniProt P00738 162-406)
T1 sequence (looked up): B2 chain 2

[2] = biological target: T2, native human haptoglobin β subunit (human, UniProt P00738 162-406)
T2 sequence (looked up): B2 chain 2

[3] = biological target: recombinant human CD163 protein (human, UniProt Q86VB7-1 42-1050)
Sequence of recombinant human CD163 protein (Q86VB7 42-1050): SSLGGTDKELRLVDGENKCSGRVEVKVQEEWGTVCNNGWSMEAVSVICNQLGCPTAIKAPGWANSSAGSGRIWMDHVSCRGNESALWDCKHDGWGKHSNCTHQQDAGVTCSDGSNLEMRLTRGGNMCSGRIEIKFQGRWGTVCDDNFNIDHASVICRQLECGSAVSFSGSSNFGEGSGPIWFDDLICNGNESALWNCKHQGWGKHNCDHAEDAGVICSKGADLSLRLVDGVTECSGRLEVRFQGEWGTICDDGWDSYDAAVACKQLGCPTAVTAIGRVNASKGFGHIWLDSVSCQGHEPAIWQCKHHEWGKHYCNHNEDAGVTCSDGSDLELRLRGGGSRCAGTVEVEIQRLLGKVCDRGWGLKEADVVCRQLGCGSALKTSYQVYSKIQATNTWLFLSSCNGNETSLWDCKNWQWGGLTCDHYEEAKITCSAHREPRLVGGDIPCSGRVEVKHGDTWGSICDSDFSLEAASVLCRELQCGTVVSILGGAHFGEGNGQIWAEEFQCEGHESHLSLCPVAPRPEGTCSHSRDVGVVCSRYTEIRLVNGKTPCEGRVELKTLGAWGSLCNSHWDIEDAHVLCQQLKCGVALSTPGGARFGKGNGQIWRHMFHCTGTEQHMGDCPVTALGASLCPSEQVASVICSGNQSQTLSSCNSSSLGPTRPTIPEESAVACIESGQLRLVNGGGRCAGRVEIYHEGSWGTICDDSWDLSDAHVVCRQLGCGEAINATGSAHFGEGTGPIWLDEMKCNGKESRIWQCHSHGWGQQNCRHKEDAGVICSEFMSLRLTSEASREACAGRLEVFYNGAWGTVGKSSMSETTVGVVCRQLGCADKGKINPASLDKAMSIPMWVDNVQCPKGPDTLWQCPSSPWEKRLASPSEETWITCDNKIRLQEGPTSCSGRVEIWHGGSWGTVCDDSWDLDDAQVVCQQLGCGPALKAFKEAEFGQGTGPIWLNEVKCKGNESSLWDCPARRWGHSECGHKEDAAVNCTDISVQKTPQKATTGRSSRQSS

Binder	Kd [1] [nM]	Kd [2] [nM]	Kd [3] [nM]
B1	29	30	–
B2	–	–	70
